Results taken from article PMC12095637.
Like-named read-outs stand apart in the source and are kept apart here.

Columns and labels:
Test in all cases: SEC-MALS
[1] = biological target: DdMICU (Dictyostelium discoideum MICU, residues 105–461) (Dictyostelium discoideum)
[2] = biological target: DdMICU (Dictyostelium discoideum MICU, residues 105–461) (Dictyostelium discoideum); remark: listed apart in the source
[3] = biological target: DdMICU (Dictyostelium discoideum MICU, residues 105–461) (Dictyostelium discoideum); remark: listed apart in the source

## DdMICU (Dictyostelium discoideum MICU, residues 105–461) (domain or fragment)
[1]
  stoichiometry N: 4
[2]
  stoichiometry N: 2
[3]
  stoichiometry N: 2
